Data taken from US20140079716A1 (Biogen, published 2014).
Substitutions are numbered along the chain they refer to. Where “and” joins values, the source holds several entries; their conditions need not be identical. Equal entries are not always repeated.

T1: soluble recombinant human lymphotoxin α1β2 (human, UniProt P01374 35-205, limits assumed)
T1 sequence 1: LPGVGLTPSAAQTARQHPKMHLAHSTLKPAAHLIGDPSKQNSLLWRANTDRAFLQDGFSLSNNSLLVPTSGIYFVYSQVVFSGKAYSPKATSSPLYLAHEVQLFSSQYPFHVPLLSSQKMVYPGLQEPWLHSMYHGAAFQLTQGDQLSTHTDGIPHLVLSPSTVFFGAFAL
T1 sequence 2: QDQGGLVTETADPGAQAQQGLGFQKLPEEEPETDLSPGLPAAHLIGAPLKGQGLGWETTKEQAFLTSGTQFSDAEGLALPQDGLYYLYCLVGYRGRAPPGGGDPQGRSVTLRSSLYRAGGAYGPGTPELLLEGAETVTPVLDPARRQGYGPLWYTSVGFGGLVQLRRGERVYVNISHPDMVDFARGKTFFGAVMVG

T2: human LT (human, UniProt P01374 35-205, limits assumed)
T2 construct: also called human LTα1β2
T2 sequence 1: T1 sequence 1
T2 sequence 2: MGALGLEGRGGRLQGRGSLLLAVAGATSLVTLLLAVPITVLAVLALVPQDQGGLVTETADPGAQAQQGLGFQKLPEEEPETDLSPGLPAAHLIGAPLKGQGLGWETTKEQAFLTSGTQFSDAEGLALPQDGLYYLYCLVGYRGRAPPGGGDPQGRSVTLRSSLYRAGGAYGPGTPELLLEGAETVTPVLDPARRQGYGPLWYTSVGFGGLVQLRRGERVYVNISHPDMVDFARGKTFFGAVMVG

T3: LTα3 (soluble homotrimer) (UniProt P01374 35-205)
T3 construct: Coated on ELISA plates at 1 or 5 ug/ml; also called LTa3
T3 sequence (looked up): T1 sequence 1

T4: LTα1β2 on the surface of PMA-treated II-23 cells (UniProt P01374 35-205, limits assumed)
T4 construct: whole, on cells; also called surface LT
T4 sequence 1: T1 sequence 1
T4 sequence 2: T2 sequence 2

T5: Soluble Flag-tagged LTα1β2 (UniProt P01374 35-205, limits assumed)
T5 construct: Biacore ligand captured on the anti-Flag antibody M2; the whole LTβ entry is named here; also called Ligand
T5 sequence 1: T1 sequence 1
T5 sequence 2: T1 sequence 2

B1: LT105 (P2E9.7) (antibody, IgG1, V domains shown)
VH: DVQLQESGPGLVKPSQSLSLTCSVTGYSITSGYYWNWIRQFPGNKLEGMGYISYDGSNNYNPSLKNRISITRDSSKNQFFLKLNSVTAEDSGTYYCARDAYSYGMDYWGQGTSVTVSS
VL: DIVLTQSPASLAVSLGQRATISCRASESVDNYGISFMHWYQQKPGQPPKLLIYRASNLESGIPARFSGSGSRTDFTLTINPVETDDVATFYCQQSNKDPYTFGGGTKLEIK
notes: The humanized versions were tested only for solubility; also called mAb LT105
B2: LT107 (P5C4.1) (antibody, V domains shown)
VH: QVQLKQSGPGLVQPSQNLSITCTVSGFSLTNYGIHWIRQPPGKGLEWLGVIWSGGSTDHNAAFISRLSISKDNSKSQVFFTMNSLEVDDTAIYYCARNRAYYRYEGGMDYWGQGTSVTVSS
VL: DIKMTQSPSSMYASLGERVTITCKASQDINTYLNWFQQKPGKSPMTLIYRADRLLDGVPSRFSGSGSGQDYSLTISSLEDEDMGIYYCQQYDDFPLTFGAGTKLELK
notes: Murine monoclonal antibody, kappa light chain; also called mAb LT107
B3: LT108 (P4F2.2) (antibody, V domains shown)
VH: B2 VH with N17S, N31D, A62V, I64T, S68N, T81K, V87P, I92M
VL: B2 VL
notes: also called mAb LT108
B4: 9B4 (antibody, V domains shown)
VH: QVTLKESGPGILQPSQTLSLTCSFSGFSLSTSGMGVSWIRQPSGKGLEWLAHIYWDDDKRYNPSLRSRLTISKDTSRNQVFLKITSVDTADTATYYCARREGYYGSSFDFDVWGAGTTVTVSS
VL: QIVLSQSPAILSASPGEKVTMTCRASSSVSYMIWYQQKPGSSPKPWIYATSSLASGVPTRFSGSGSGTSYSLTISRVEAADAATYYCQQWSYNPLTFGAGTKLELK
notes: Murine monoclonal antibody, kappa light chain; also called LT 9B4; LT9B4
B5: LT102 (P1G8.2) (antibody, IgG1, V domains shown)
VH: EVKLVESGGGLVKPGGSLKLSCAVSGFTFSDYYMYWIRQTPEKRLEWVATIGDGTSYTHYPDSVQGRFTISRDYATNNLYLQMTSLRSEDTALYYCARDLGTGPFAYWGQGTLVTVSA
VL: DVLMTQTPRSLPVSLGDQASISCRSSQNIVHSNGNTYLEWYLQKPGQSPKLLIYKVSNRFSGVPDRFSGSGSGTDFTLKISRVEAEDLGVYYCFQGSHFPWTFGGGTKLEIK
notes: also called mAb LT102; LT012
B6: A0D9 (antibody, V domains shown)
VH: QVQLKQSGPGLVQPSQSLSITCTVSGFSLSTYGVHWVRQFPGKGLEWLGVIWRGGNTNYNAAFMSRLTISKDNSKSQVFFKMNSLQAKDTAIYYCVRNQIYDGYYDYAMDYWGQGTSVTVSS
VL: DIKMTQSPSSMYASLGERVTITCKASQDINTYLNWLQQKPGKSPKTLIYRANRLVDGVPSRFSGRGSGQDYSLTISSLEYEDVGIYYCLHYDAFPWTFGGGTKLEIK
notes: Murine monoclonal antibody, kappa light chain; also called mAb A0D9; AOD9
B7: A1D5 (antibody, V domains shown)
VH: EVQLQQSGPELVKPGASVKISCKASGYSFTGYFMNWMRQSHGKSLEWIGRINPYNGDSFYNQKFKDKATLTVDKSSTTAHMELLSLTSEDSAVYYCGRGYDAMDYWGQGTSVTVSS
VL: DIQMTQTTSSLSASLGDRVTISCRASQDISNFLTWYQQKPDGTVKLLIYYTSKLHSGVPSRFSGSGSGTDYSLTISNLEPGDIATYYCQQVSKFPWTFGGGAKLEIK
notes: Murine monoclonal antibody, kappa light chain; also called mAb A1D5
B8: LT101 (P1G4.4) / LT103 (P1G9.1) (antibody, V domains shown)
VH: QVQLQQSGPELVKPGASVQISCKASGYVFSSSWMNWVKQRPGRGLEWIGRIYPGDGDTDYTGKFKGKATLTADKSSNTAYMQLSSLTSVDSAVYFCASGYFDFWGQGTPLTVSS
VL: DITMTQSPSSMYASLGERVTITCKASQDMNNYLRWFQQKPGKSPQTLIFRANRLVDGVPSRFSGSGSGQDYSLTISSLEFEDMGIYYCLQHDKFPPTFGGGTKLEIK
notes: Murine monoclonal antibody, kappa light chain; also called LT101/LT103
B9: Murine LTBR-mIgG1 (Fc fusion, UniProt P50284 31-223, looked up)
chain: QLVPPYRIENQTCWDQDKEYYEPMHDVCCSRCPPGEFVFAVCSRSQDTVCKTCPHNSYNEHWNHLSTCQLCRPCDIVLGFEEVAPCTSDRKAECRCQPGMSCVYLDNECVHCEEERLVLCQPGTEAEVTDEIMDTDVNCVPCKPGHFQNTSSPRARCQPHTRCEIQGLVEAAPGTSYSDTICKNPPEPGAMLL
notes: also called mLTBR-mIgG1; mLTβR-mIg; not shown: murine IgG1 part
B10: monomeric LTβR (receptor, UniProt P36941 31-227, looked up)
chain: QAVPPYASENQTCRDQEKEYYEPQHRICCSRCPPGTYVSAKCSRIRDTVCATCAENSYNEHWNYLTICQLCRPCDPVMGLEEIAPCTSKRKTQCRCQPGMFCAAWALECTHCELLSDCPPGTEAELKDEVGKGNNHCVPCKAGHFQNTSSPSARCQPHTRCENQGLVEAAPGTAQSDTTCKNPLEPLPPEMSGTMLM
notes: Injected at 20 µM in the Biacore assay; also called LTbR
B11: LTβR-Ig (Fc fusion, UniProt P36941 31-227, looked up)
chain: B10 chain
modifications: biotin label in the II-23 assay (sites not given)
notes: also called LTBR-Ig; LTbR-Ig; not shown: Ig (Fc) part

target: T1, soluble recombinant human lymphotoxin …; experiment: cell-based or functional assay

Row | Binder | IC50 nM, inhibition of IL-8 release | Maximum % Inhibition of IL-8 release
1 | B1 | 1.06 nM and 0.52 nM | 100%
2 | B2 | 0.53 nM | 95%
3 | B3 | 1.3 nM | –
4 | B4 | 0.6 nM | 95%
5 | B5 | 0.406 nM and 0.991 nM | 92%
6 | B6 | 1.67 nM | 94%
7 | B7 | 2.5 nM | 94%
8 | B8 | 1.11 nM | 90%

target: T2, human LT; experiment: reagent description; assay not stated

Row | Binder | fold lower affinity than for murine LT
9 | B9 | ~2 fold

target: T3, LTα3 (soluble homotrimer); experiment: ELISA on plate-coated LTα3 (1 or 5 ug/ml)
Procedure: For the LTa3 ELISA, microtiter plates were coated with LTα3 (1 or 5 ug/ml in PBS) then nonspecific binding sites were blocked with a 1% casein buffer. Samples (antibodies, receptor-Ig) were added and binding detected with HRP-conjugated anti-murine Ig antibodies. For assessment of ability of mAbs to block interaction between LTα3 and TNFR-hIg (p55), plates were coated with LTα3 and blocked as described above. Serial dilutions of antibodies were added to plate 30 minutes prior to TNFR-Ig addition. Binding of TNFR-hIg to plate-bound LTα3 was detected with an HPR conjugated anti-human Ig antibody.

Row | Binder | binding result
10 | B1 | no binding
11 | B2 | no binding
12 | B3 | no binding
13 | B4 | no binding
14 | B5 | no binding
15 | B6 | no binding
16 | B7 | no binding

target: T4, LTα1β2 on the surface of PMA-treated …; experiment: FACS, inhibition of biotin-LTβR-Ig binding to PMA-treated II-23 cells
Procedure: (§1) II-23 cells were incubated with 50 ng/ml PMA for 4 hours at 37° C. 5% CO2. The cells were washed and 500,000 cells were added to each well of a 96-well plate. The antibody was diluted to the appropriate concentrations and added to the II-23 cells. After a 30 minute incubation period at 4° C., the biotin labeled LTβR-Ig is added to each well for a final concentration of 1 ug/ml. The cells are incubated at 4° C. for an additional 30 minutes, and then washed 3 times. Streptavidin-PE was diluted to 1/500 and added to each well and incubated for 1 hour at 4° C. The cells were washed once and read by FACS analysis. The mean fluorescence intensity is plotted versus antibody concentrations, and an IC50 is determined from a 4-parameter curve fit of the data.

Row | Binder | potency in an II-23 assay (% blockade)
17 | B1 | > 90%
18 | B4 | > 90%
19 | B5 | > 90%
20 | B6 | > 90%
21 | B7 | > 90%

target: T5, Soluble Flag-tagged LTα1β2; experiment: SPR (Biacore 3000), Flag-LTα1β2 captured on anti-Flag M2; LTβR binding site 1

Row | Binder | Kd
22 | B10 | ~50 nM

target: T5, Soluble Flag-tagged LTα1β2; experiment: SPR (Biacore 3000), Flag-LTα1β2 captured on anti-Flag M2; LTβR binding site 2

Row | Binder | Kd
23 | B10 | ~1500 nM

target: T4, LTα1β2 on the surface of PMA-treated …; experiment: FACS, inhibition of biotin-LTβR-Ig (1 ug/ml) binding to PMA-treated II-23 cells
Procedure: as §1

Row | Binder | Maximum % Inhibition
24 | B1 | 97%
25 | B2 | 80%
26 | B4 | 99%
27 | B5 | 98%
28 | B6 | 92%
29 | B7 | 92%
30 | B8 | 77%

target: T4, LTα1β2 on the surface of PMA-treated …; experiment: competition FACS (II-23 assay, as in FIG. 4): LT-expressing cells, varied antibody, labelled LTβR-Ig; MFI of bound LTβR-Ig
Procedure: as §1

Row | Binder | IC50 (read off the curve)
31 | B1 | ~0.06 mg/L
32 | B2 | ~0.03 mg/L
33 | B5 | ~0.4 mg/L
34 | B6 | ~0.2 mg/L
35 | B7 | ~0.6 mg/L
36 | B8 | ~0.04 mg/L

target: T4, LTα1β2 on the surface of PMA-treated …; experiment: competition FACS (II-23 assay, as in FIG. 4): LT-expressing cells, varied competitor, labelled LTβR-Ig; MFI of bound LTβR-Ig
Procedure: as §1

Row | Binder | IC50 (read off the curve)
37 | B11 | ~0.03 mg/L

target: T4, LTα1β2 on the surface of PMA-treated …; experiment: competition FACS (II-23 assay): PMA-treated II-23 cells, varied antibody, then biotin-LTβR-Ig at 1 ug/ml, streptavidin-PE; MFI of bound LTβR-Ig
Procedure: as §1

Row | Binder | IC50 (read off the curve)
38 | B1 | ~1 nM
39 | B4 | ~0.9 nM
40 | B5 | ~3 nM

target: T4, LTα1β2 on the surface of PMA-treated …; experiment: competition FACS (II-23 assay): PMA-treated II-23 cells, varied competitor, then biotin-LTβR-Ig at 1 ug/ml, streptavidin-PE; MFI of bound LTβR-Ig
Procedure: as §1

Row | Binder | IC50 (read off the curve)
41 | B11 | ~0.8 nM
